These results are taken from patent publication US20180030151A1 (MOGAM INSTITUTE FOR BIOMEDICAL RESEARCH, published 2018).

The target of assay [1] is T1, recombinant human TFPI (tissue factor pathway inhibitor) (human, UniProt P10646 29-304). As to the kind of experiment: cell-based or functional assay.
Assay [2] deals with T1, recombinant human TFPI (tissue factor …). As to the kind of experiment: cell-based or functional assay. The source holds these as a separate data set.
Assay [3] has the same target. Kind of assay: cell-based or functional assay. This is another data set of the same source.
Assay [4] has the same target. As to the kind of experiment: cell-based or functional assay. The source holds these as a separate data set.
For assay [5] the target is unchanged. As to the kind of experiment: SPR, Biacore T-200; IgG captured on protein A (CM5), TFPI as analyte. Here is the method: Dissociation of the TFPI associated with the antibody was induced by running 10 mM glycine-HCl (pH 1.5) at a flow rate for 30 seconds. The affinities in terms of kinetic rate constants (Kₒₙ and Koff) and equilibrium dissociation constant (KD) were evaluated using Biacore T-200 evaluation software, and the results are shown in Table 24 below.
In general terms: SPR reads the build-up and loss of mass on a sensor chip optically.

Substitutions are numbered along the chain they refer to.

B1: clone 12 (antibody, V domains shown)
VH: EVQLVESGGGLVKPGGSLRLSCAASGFTFSSYAMNWVRQAPGKGLEWVGTITTGGSHTYYADSVEGRFTISRDNAKNSLYLQMNSLRAEDTAVYYCARQDGHFLMDYWGQGTLVTVSS
VL: DVVMTQTPLSLPVTLGQPASISCKSSPSLLDIDGKTYLNWLQQRPGQSPKRLIYLVSKLDSGVPDRFTGSGSGTDFTLKISRVEAEDVGVYYCWQGTHFPFTFGQGTKVEIKR
notes: human IgG4/kappa IgG as purified; also called No. 12 antibody
For orientation: Kd means the concentration at which binding is half-saturated. For B1, in assay [1], the “effect of inhibiting TFPI, FXa activity assay, Ab 10 nM” value is approximately 82% and the “effect of inhibiting TFPI, FXa activity assay, Ab 20 nM” value is approximately 82%. In assay [2], the “A405, TF/FVIIa/FX complex assay, Ab 1.56 nM” value turned out to be 0.041; the “A405, TF/FVIIa/FX complex assay, Ab 3.13 nM” value came to 0.048; the “A405, TF/FVIIa/FX complex assay, Ab 6.25 nM” value worked out at 0.067; the “A405, TF/FVIIa/FX complex assay, Ab 12.5 nM” value was 0.097. Also, in assay [2], the “A405, TF/FVIIa/FX complex assay, Ab 25 nM” value was 0.489; the “A405, TF/FVIIa/FX complex assay, Ab 50 nM” value turned out to be 0.803; the “A405, TF/FVIIa/FX complex assay, Ab 100 nM” value amounted to 0.847. In assay [3], the “% of Normalized, TF/FVIIa/FX complex assay, Ab 1.56 nM” value came out at 4.8%; the “% of Normalized, TF/FVIIa/FX complex assay, Ab 3.13 nM” value was 5.6%; the “% of Normalized, TF/FVIIa/FX complex assay, Ab 6.25 nM” value amounted to 7.8%; the “% of Normalized, TF/FVIIa/FX complex assay, Ab 12.5 nM” value came out at 11.4%. In addition, in assay [3], the “% of Normalized, TF/FVIIa/FX complex assay, Ab 25 nM” value was 57.7%; the “% of Normalized, TF/FVIIa/FX complex assay, Ab 50 nM” value worked out at 94.6%; the “% of Normalized, TF/FVIIa/FX complex assay, Ab 100 nM” value worked out at 99.9%. Further, in assay [4], the “FXa assay % of FXa alone, 2.5 nM Ab, 10 nM TFPI” value stood at 7.4%; the “FXa assay % of FXa alone, 5 nM Ab, 10 nM TFPI” value stood at 38.8%; the “FXa assay OD, 2.5 nM Ab, 10 nM TFPI” value turned out to be 0.0615; the “FXa assay OD, 5 nM Ab, 10 nM TFPI” value was determined as 0.321. Further, in assay [4], the “FXa assay OD, 10 nM Ab, 10 nM TFPI” value turned out to be 0.68 and the “FXa assay OD, 20 nM Ab, 10 nM TFPI” value was 0.678. Also, the Kd in assay [5] amounted to 8.19 pM.

B2: clone 1202 (antibody, V domains shown)
VH: B1 VH with H57Y, E65D, Q82K, H102N
VL: B1 VL with P27Q
notes: scFv on yeast at selection; human IgG4/kappa IgG as purified; also called No. 1202 antibody
Regarding B2, in assay [1], the “effect of inhibiting TFPI, FXa activity assay, Ab 10 nM” value was approximately 82% and the “effect of inhibiting TFPI, FXa activity assay, Ab 20 nM” value is approximately 87%. Also, in assay [2], the “A405, TF/FVIIa/FX complex assay, Ab 1.56 nM” value is 0.043; the “A405, TF/FVIIa/FX complex assay, Ab 3.13 nM” value amounted to 0.051; the “A405, TF/FVIIa/FX complex assay, Ab 6.25 nM” value worked out at 0.059; the “A405, TF/FVIIa/FX complex assay, Ab 12.5 nM” value amounted to 0.091. Further, in assay [2], the “A405, TF/FVIIa/FX complex assay, Ab 25 nM” value was determined as 0.509; the “A405, TF/FVIIa/FX complex assay, Ab 50 nM” value stood at 0.843; the “A405, TF/FVIIa/FX complex assay, Ab 100 nM” value amounted to 0.859. In assay [3], the “% of Normalized, TF/FVIIa/FX complex assay, Ab 1.56 nM” value is 5.1%; the “% of Normalized, TF/FVIIa/FX complex assay, Ab 3.13 nM” value was found to be 6%; the “% of Normalized, TF/FVIIa/FX complex assay, Ab 6.25 nM” value is 6.9%; the “% of Normalized, TF/FVIIa/FX complex assay, Ab 12.5 nM” value was 10.7%. In assay [3], the “% of Normalized, TF/FVIIa/FX complex assay, Ab 25 nM” value stood at 60%; the “% of Normalized, TF/FVIIa/FX complex assay, Ab 50 nM” value was found to be 99.4%; the “% of Normalized, TF/FVIIa/FX complex assay, Ab 100 nM” value came to 101%. Besides, in assay [4], the “FXa assay % of FXa alone, 2.5 nM Ab, 10 nM TFPI” value was found to be 7.3%; the “FXa assay % of FXa alone, 5 nM Ab, 10 nM TFPI” value came to 46.2%; the “FXa assay OD, 2.5 nM Ab, 10 nM TFPI” value is 0.0605; the “FXa assay OD, 5 nM Ab, 10 nM TFPI” value is 0.382. Besides, in assay [4], the “FXa assay OD, 10 nM Ab, 10 nM TFPI” value was 0.676 and the “FXa assay OD, 20 nM Ab, 10 nM TFPI” value was determined as 0.72. In addition, in assay [5], the Kd came to 9.47 pM.
